No end group written: not given here.

Data set [1] addresses T1, hCPA4 (Homo sapiens, UniProt Q9UI42).
T1 sequence (Q9UI42 114-421): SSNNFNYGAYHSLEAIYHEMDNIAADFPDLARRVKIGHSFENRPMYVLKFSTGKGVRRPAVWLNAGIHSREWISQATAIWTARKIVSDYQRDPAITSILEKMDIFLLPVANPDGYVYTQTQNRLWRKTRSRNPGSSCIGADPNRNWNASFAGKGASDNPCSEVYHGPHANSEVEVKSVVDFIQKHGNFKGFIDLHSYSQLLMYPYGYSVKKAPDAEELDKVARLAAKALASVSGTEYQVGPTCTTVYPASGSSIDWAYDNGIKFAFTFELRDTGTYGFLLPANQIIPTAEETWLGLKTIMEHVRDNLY
Description: Ki determination, tight-binding inhibition of metallocarboxypeptidase. In kind it is biochemical. Particulars: tight-binding equation fit, equilibrium conditions; substrate AAFP 0.1mM, 20mM Tris-HCl pH 7.5, 500mM NaCl; preincubation 15 min; 37 °C; means (n = 3) ± SD. As to the method: (§1) Inhibitory activities against CPA- and CPB-type forms (bovine and human variants of CPA1, CPA2, CPA4, CPB1, and TAFI) were assayed for all extracts, subject to the experimental conditions that enzyme (E), substrate (S) and inhibitor (I) concentrations as well as the [I]/[E] ratio and preincubation time followed the requirements for tight-binding inhibitor assays. Similar approaches were followed to measure the activities of proteases of different catalytic types, like pepsin, papain, trypsin and subtilisin [45, 46, 47, 48]. All assays were performed in triplicate at 25 °C in a multiplexed manner. For 96-well assays an iEMS spectrophotometer reader/dispenser FM (Labsystems, Finland) was used with a final reaction volume of 250 μL. For cuvette assays, a Cary 400 Bio spectrophotometer (Varian Inc., Palo Alto, CA, USA) spectrophotometer was used with a final reaction volume of 1 ml. The reactions were followed at 5 s intervals for 5 min and recorded as initial velocities. In the protease inhibition assays, mixtures of activity buffer, biological sample and enzyme were preincubated at 25 °C for 10min, before substrate addition. The assay conditions were as follows: for CPA-like enzymes, 7.0nM CPA, 0.1mM AAFP substrate in 20mM Tris-HCl pH 7.5, 500mMNaCl, 1% v/v dimethyl sulfoxide (DMSO), 0.05% w/v BRIJ-35 was used. For CPB-like enzymes, CPB 3.0nM CPB, 0.1mM AAFA substrate and activity buffer of 20 mM Tris-HCl pH [50].
(§2) The Ki values of natural and recombinant NvCI against bCPA1, hCPA1, hCPA2, rat CPA3, hCPA4, hCPB1, bTAFI, hTAFI, hCPD and hCPZ were determined by measuring the enzymatic residual activity (Vi/V0 = a) at different inhibitor concentrations and using a fixed enzyme and substrate concentrations as described above, where vi and v0 are the fraction of enzymatic activity in the presence and absence of inhibitor, respectively, in terms of initial velocities. The determination of Ki values was carried out on equilibrium conditions ([E0]/Ki ≤ 10), using a previously determined preincubation time of 15 min, required to establish enzyme-inhibitor equilibrium. Working temperature was 37 °C. The best estimates of Ki values were obtained by fitting the experimental data to the equation for tight-binding inhibitors by non-linear regression using the GraphPad Prisma 5 software (GraphPad Software, Inc., San Diego, CA, USA) at p < 0.05. The real Ki values against each of these A/B-type MCPs were calculated according to the equation described by Morrison and Copeland [19, 20].

Data set [2] concerns the target T2, hCPA1 (Homo sapiens, UniProt P15085).
T2 sequence (P15085 111-419): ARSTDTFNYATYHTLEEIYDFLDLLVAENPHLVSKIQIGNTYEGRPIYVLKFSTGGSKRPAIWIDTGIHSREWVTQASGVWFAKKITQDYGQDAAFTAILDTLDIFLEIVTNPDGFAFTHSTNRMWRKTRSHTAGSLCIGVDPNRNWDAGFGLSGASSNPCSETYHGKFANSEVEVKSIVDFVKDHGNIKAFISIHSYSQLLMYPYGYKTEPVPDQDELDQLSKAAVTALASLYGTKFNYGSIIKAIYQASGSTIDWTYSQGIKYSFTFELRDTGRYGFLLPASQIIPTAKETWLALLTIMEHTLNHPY
Described as above. In kind it is biochemical. Particulars: tight-binding equation fit, equilibrium conditions; substrate AAFP 0.1mM, 20mM Tris-HCl pH 7.5, 500mM NaCl; preincubation 15 min; 37 °C; means (n = 3) ± SD. As to the method: as §1, §2

The target of data set [3] is T3, hCPA2 (Homo sapiens, UniProt P48052).
T3 sequence (P48052 115-419): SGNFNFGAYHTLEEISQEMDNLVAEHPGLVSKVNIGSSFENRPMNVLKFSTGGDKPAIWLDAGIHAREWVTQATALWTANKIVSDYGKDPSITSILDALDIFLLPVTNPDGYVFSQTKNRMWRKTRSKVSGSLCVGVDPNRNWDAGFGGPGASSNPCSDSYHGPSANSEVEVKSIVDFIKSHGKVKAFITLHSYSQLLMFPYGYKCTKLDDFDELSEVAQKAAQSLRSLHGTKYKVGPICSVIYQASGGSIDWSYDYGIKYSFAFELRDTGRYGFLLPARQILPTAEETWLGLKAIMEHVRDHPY
The data set is described as above. In kind it is biochemical. Particulars: tight-binding equation fit, equilibrium conditions; substrate AAFP 0.1mM, 20mM Tris-HCl pH 7.5, 500mM NaCl; preincubation 15 min; 37 °C; means (n = 3) ± SD. The procedure:
as §1, §2

Data set [4] can be described thus: Folding state and stability by CD at different pH and temperature. In kind it is physicochemical. The conditions noted are these: pH 2 to 10, 25 °C to 90 °C, 0.05–0.06 mg/ml. The procedure: The folding state and stability of NvCI was investigated on the natural and recombinant forms by CD. The proteins, either in 0.1% TFA (v/v) or 20mM sodium phosphate (pH 2.0, 6.5 or 8.0) were analyzed at 0.05–0.06 mg/ml, from 25 to 90 °C in a Jasco J-710 spectropolarimeter (Pfugnstadt, Germany) in the 190–320nm range. Additional analyses were made under folding conditions (20mM sodium phosphate, pH 8.0) in the absence and presence of reducing reagent (1 or 20 mM DTT), a redox-pair (1mM Cys + 0.5mM cystine), and either absence or presence of denaturant (8 M urea). Complementary ^1H-NMR experiments were performed in a 500MHz NMR (Bruker Advance) on rNvCI in 20 mM sodium phosphate (pH 2.0 and 6.5), in 90% ^1H2O + 10% D2O, at 298 K. DQF-COSY, NOESY, TOCSY and HSQC spectra were obtained in a TCI cryoprobe of 5mm and used for provisional backbone assignment.

In data set [5] the target is T4, hCPA4 (Homo sapiens (Human), UniProt Q9UI42).
T4 chain: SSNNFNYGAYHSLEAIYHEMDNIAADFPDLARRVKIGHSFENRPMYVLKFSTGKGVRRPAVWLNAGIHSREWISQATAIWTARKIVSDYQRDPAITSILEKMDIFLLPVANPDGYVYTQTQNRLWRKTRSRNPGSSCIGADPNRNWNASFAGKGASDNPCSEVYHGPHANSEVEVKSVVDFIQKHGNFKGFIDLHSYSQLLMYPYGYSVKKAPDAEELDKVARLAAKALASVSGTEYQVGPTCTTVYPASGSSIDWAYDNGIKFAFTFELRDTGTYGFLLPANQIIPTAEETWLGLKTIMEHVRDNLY
The experiment in a line: Ki, residual activity.

A word on the Ki: it is a measure of affinity in units of concentration, obtained from inhibition or displacement. Read a high Ki as weaker binding. Turning to “NvCI: 53-residue, three-disulphide proteinaceous metallocarboxypeptidase inhibitor from the marine snail Nerita versicolor; major isoform; UniProt P86912 (FHVPDDRPCINPGRCPLVPDATCTFVCKAADNDFGYECQHVWTFEGQRVGCYA; disulfide (positions not given here); also: three disulphides, pairing not given here; UniProt P86912 1-53, looked up)”, the Ki was 9.7 ± 1 pM in data set [1], 1.8 ± 0.2 pM in data set [2] and 6510 ± 68.6 pM in data set [3]. In addition, in data set [4], the “stability by CD spectra” value was “great stability and capacity to recover its spectral properties when returned to room conditions”.

B1: NvCI (protein)
chain: FHVPDDRPCINPGRCPLVPDATCTFVCKAADNDFGYECQHVWTFEGQRVGCYA
modifications: disulfide (positions not given here); not fully specified (bridges); ends not checked
A word on the Kd: it is the constant that tells how readily two partners part at equilibrium. Low values mean higher affinity, high ones lower affinity. Molecule B1 showed a Kd in data set [5] of 4.9 pM.

These data come from publication PMC6780499, “Characterization, Recombinant Production and Structure-Function Analysis of NvCI, A Picomolar Metallocarboxypeptidase Inhibitor from the Marine Snail Nerita versicolor” (Marine Drugs, 2019).
